The values below are quoted from earlier work in US8691960B2, “Oxidoreductases for enantioselective reactions” (Duke University, priority 2012, dated 2014).

The conditions of this series: literature (Dang et al. 2009; Gross et al. 2010).

On to “HsIDH1-R132C: human cytosolic NADP+-dependent isocitrate dehydrogenase (HsIDH1) R132C cancer mutant”, for which the “lowering of Vmax for neomorphic activity relative to HsIDH1-R132H” value is on record as 2 fold.
